Experimental data published in the DeepSol protein solubility set.

Assay: soluble on expression in E. coli; label from the status in PepcDB or PDB records
In the case of “MGSDKIHHHHHHVELHQLKDLLTEKLQATSLIHATISAPRLKSNDLRRIKVKPILLRDTYAIQLEFQHERIIKHENLSIEEFIVRMDQFFDEFRQFLFRFETEEVQFQLSKKMKVSIKTTVKEPIQAELSHNRKKSHLLEDGVPVPFLIRLGVMTEEGQVKRQKYDKFKQINRFLEFVEDSIAVLPKGRTLRILDFGCGKSYLTFALYHYLKIVKGFDLNVTGLDLKKEVIEECAAIAADLGYDDLSFRVGDVHDYDQDTEVDLMVTLHACDVATDVALARAVDWNASVILSVPCCQKELNRQLDCSPLDVMLQHGLIQEKFASLATDSIRAELLTLVGYETQLLEFIDLENTPKNILIRAYKNPKRPTEEKIDRYIAFRELLHAKPYLERELSGRLGQISSKLVQ”, the “soluble on expression in E. coli” value is reported as “not soluble”.
With “MGSDKIHHHHHHVEMPGTTEPLGKMVKVEGKKDEHKGDFFLTTVQIARANLATMIYSHFNSFTSIYSEQEMTGGLNDAQFNRVNQFYMETAQNTAIYQAFKLANKPYELKYEGVYVLDIAKNSTFKNKLELADTITAVNGQQFTSSADMIAYVSKQKVGDSVTIEYTRIDGTKHKSTGKYIKIANGKTGIGISLVDHTEVVTTPKVTVNAGSIGGPSAGMMFTLEIYSQLTGKDLRNGREIAGTGTIEHDGSIGQIGGVDKKVATASKEGAKVFLVPDSGTKKESSNNYLGAKTAAKKLKTKMKIVPVKTIQDALDYLEK” the “soluble on expression in E. coli” value was “not soluble”.
In the case of “MGSDKIHHHHHHVEYPLPAKNSNLVGENQYYVVPEGKLTLEAIATKFQLGLTNLLEANPGVDPFLPKPGSTLVIPHQLILPNAPREGIVINVAEMRLYYYPKGKNIVEVLPIGIGQIGKDTPEKWVTTVQRKRANPTWTPTPRIRKEYLAKGEVLPAVWPAGPDNPMGLFALYIGNLYAIHGTNATFGIGLRISQGCIRLRDADIEHLFNSVPEGTRVEFTNQPIKASEEPDGNRYLEVHQPLSRTMAEYESAEPVGLSMHRDIAKFVAHADTDSFVLKRLLEQRNGIPTRINQ”, the “soluble on expression in E. coli” value is reported as “not soluble”.
For “MGSDKIHHHHHHVNVPTEFDINVLRADFDKTRLPRSRAQQMPGKMYTSSEVAALEKKRIFMDTWLCAGREEEIANPGDYMTREIASEPFVLSRDKEGKVHAFLNMCLHRGVPVAEGSGNARGFSCPYHAWYYDLQGTLLAAPLMEQSEANLKNCRLKPMRLALWRGWIFVSFNPDAMPFETFIAPFEENLWWFKSDECRLSERVVLQIDCNWKLLVENLIDIYHVPVLHKASFGGFLKSDKEKLSFNLLPRGGWYYEQKARPHSKSGQQLFPTLPWLEGMDSGTSMKAGIFPNLNLSLRFDSLRMWQVWPTSTGKSELHLYSLFMPAAFEDPDFQKHYEEYKSFLLGAIVNEDGPMVVKLQQAMGSEFYAPGPLSHLEGAVHHLMNYYLDVVSGEDRND”, the “soluble on expression in E. coli” value was “not soluble”.
With “MGSDKIHHHHHHVPVADRVSKVDVIAFRLAAHHLDERLGEGGLLDAAGRCGIQNSPPGSALLALHARVRNLTQQQVAGAVAKEKSLLQTWCMRGSPFYFPALDAPVFTTGVLPPTEEAMRHLVVGVEPALDKLGISLTEAVELADAEIHEVLSGRRLAINELGAEIATRIARRLPKRQRDIWEDNGPYAPGQPLGEGVVHFCVRILTLQRVLCLAPRVGNQSPFVLVDEWLGDPIPDIDPELARAELLRRYLRCYGPSTRGDFASWAGVHAGDTGPWWNLVGTELTPVEFGGTSWILTEDLDALRSAPAPTGVRLLPPGDPYTQMRDRETIVDKKYHREVWRMAGGPGTVLAGGKITGTWRSRKSGRKLALTITTFGSLPDRDRTSLQGEAGQVAALRGASSVDVAFGTY” the “soluble on expression in E. coli” value was “not soluble”.
With “MGSDKIHHHHHHVQTPALIIVTGHPATGKTTLSQALATGLRLPLLSKDAFKEVMFDGLGWSDREWSRRVGATAIMMLYHTAATILQSGQSLIMESNFRVDLDTERMQNLHTIAPFTPIQIRCVASGDVLVERILSRIAQGARHPGHCDDRSPADLELVRSRGDIPPLPLGGPLLTVDTTFPEQIDMNAIVQWVRQHLQSGTAFL” the “soluble on expression in E. coli” value was “not soluble”.
In the case of “MGSDKIHHHHHHVRCLNEEIARKANREDECKGAFWEGRFKSQALLDEQALLACMMYVDLNPIRAGIADSLQSSDFTSIQERISALKQVNNTIISPQAPVQSAKNKPQTINKSLAKFDAATHSSQQTGIPFHFADYLELIDWTGRTIRHDKKGFIDNQRPKLLNELGIASDAWLSSAKDFRRQYSGISGRWDAMCAFKLQQGGKWCRGKSSCEALHPNQPLG”, the “soluble on expression in E. coli” value is reported as “not soluble”.
With “MGSDKIHHHHHHVRVNVKSHGPRATFPAAPCLHRNPKVKLRLFPQEPAGLHLLSQMARQIVLATATLAEILGVPATEHNRLVEDMHDHEAKSAELHFALLTHMRTSFVNPLPREDMYALSRYLNEAMEKLDAAAELVALYKLERLPRRAADQLEIISRQAELTVDAMRQLNNLDDLEDYWIEILRLAKRAERTHRVWVADMIKDMKWAQYARNRDIANQLVEVTKDMRRIATQVGSIIVKES” the “soluble on expression in E. coli” value was “not soluble”.
With “MGSDKIHHHHHHVSPSILGQGEVEQLLTGTYRSLQNDPGRDTWVLFDMRGENLINTYLSGSNDFVNNEIPSNNGTLLTMWRGYYKAIYNANTTLSILSNLEPSEKNTHIEAQARFLRAYAYYCLATRWDGVPIIKDNTLENVKRDKQSAVFNFIKEELSFCIDEGHLKPFGETSGAPFTVSLEAAQALMARLALTTGDMETAKNMAETLIANPKFKLSENYDNIFTTTNNSEIIFSFRNNTSEGGQNLYALFTTYNSPMKGSWFLCPSPESEKLFEDPADTRNNTCITTLESVSETYIIMNKFRDFTPLIVSRIAEMYLISAEAQGRNGLNRLNELRRSRGLNPYNNSDIASEEDYQKKVALERRKELYCEGFLFFDLIRTNKISEEVVSMNGKTNLYLPLPESEVQYNPNLNEYN” the “soluble on expression in E. coli” value was “not soluble”.
For “MGSDKIHHHHHHVTDSDSQPVNEFPIAPPAPRKGRGAVTNLQGRYEVDQREAIDDGWLSLAEDDDEPKVLRTQVFEERAKTILTRNASPDIPFGVSLNPYRGCEHGCIYCFARPTHSYLGLSPGLDFESRIYAKVNAPELLERELSKKSYVPEPIALGVNTDAWQPAERDLQLTRRVIEVLSERHHPFAAITKSSLIERDLDLLAPMAARGQFMAAITITTLDAGIARTLEPRAATPSRRLRTIRTLSEAGIPVGVSIAPVIPFVTEPDMERVLEACAEAGASNASYIVLRLPWEVAPLFKDWLAAYFPDRAERVMGRVRDMRGGKDYDSSFSTRMKGEGLWADLLKQRFHKAVRRLGLNRRDRGILDMSHFRRIEPPRAGQPARNDSQLDLF”, the “soluble on expression in E. coli” value was “not soluble”.
For “MGSDKIHHHHHHVTLRQRIQAMSDCNRDPVSQITDLSGALVTIVPSLLACVGMVFASNLTDVTAEALLYDYREAANPLGQRLIARVPYQDWGAELHQTPETAIIPLDLSEALGCEGPATSPSLLANFVHILPNQAIETTAIATSQIFYVLRGQGVTRVADQEIAWTEGCCLALPADAIATHYAQTDSAFYWVHDAPLLRYLGVKPDRARFQPTLYRRQDLEATLAAIAADPQSRKANRLSVLLANQNFPQTRTITHTIWAMFGLLPPDVVQAPHRHQSVALDLILDCQPGCYTLVGTQLDERGQIRNPVRVDWRPYSVFVTPPGYWHAHYNESGQEAHLLPIQDAGLHTYLRTLDILFARHNGQISDEAA”, the “soluble on expression in E. coli” value was “not soluble”.
In the case of “MGSDKIHHHHHHVYTIARLHNFGCAFLYSPLTYPLYRSWLRTLTIKGNIIAIGASVADKPVGLALAEILRDGSAKLLSIFVDPNSRCLGIGTALVHSLEEELILRNCTSIEIVYIAGKSTSLALECLLKKCNWPSAKPRMLICKTTTNDMTNAPWMKLSRMPAAYEIFPWMEITFQERVALKKQQEEKRWMASDAIPFDYEQDLEPINSIGLRYKGEVVGWLITHRTAPDTIRYTCSYVRPDIQKMGRIIPLYIRATQLQMEAGISRGTWTVSLMHTSMIAFVKKHMGPYLISLEQSMESSKLLSHL”, the “soluble on expression in E. coli” value is reported as “not soluble”.
In the case of “MGSENSALKSYTLREPPFTLPSGLAVYPAVLQDGKFASVFVYKRENEDKVNKAAKHLKTLRHPCLLRFLSCTVEADGIHLVTERVQPLEVALETLSSAEVCAGIYDILLALIFLHDRGHLTHNNVCLSSVFVSEDGHWKLGGMETVCKVSQATPEFLRSIQSIRDPASIPPEEMSPEFTTLPECHGHARDAFSFGTLVESLLTILNEQVSADVLSSFQQTLHSTLLNPIPKCRPALCTLLSHDFFRNDFLEVVNFLKSLTLKSEEEKTEFFKFLLDRVSCLSEELIASRLVPLLLNQLVFAEPVAVKSFLPYLLGPKKDHAQGETPCLLSPALFQSRVIPVLLQLFEVHEEHVRMVLLSHIEAYVEHFTQEQLKKVILPQVLLGLRDTSDSIVAITLHSLAVLVSLLGPEVVVGGERTKIFKRTAPSFTKNTDLSLEGDPFSQPIKFPINGLSDVKNTSEDSENFPSSSKKSEEWPDWSEPEEPENQTVNIQIWPREPCDDVKSQCTTLDVEESSWDDCEPSSLDTKVNPGGGITATKPVTSAEQKPIPALLSLTEESMPWKSSLPQKISLVQRGDDADQIEPPKVSSQERPLKVPSELGLGEEFTIQVKKKPVKDPEMDWFADMIPEIKPSAAFLILPELRTEMVPKKDDVSPVMQFSSKFAAAEITEGEAEGWEEEGELNWEDNNW”, the “soluble on expression in E. coli” value is reported as “soluble”.
In the case of “MGSGILFVFAIGAIPSQAQDIGSTDRLNVENWQEWETVGEAQLTWFVFDIYRSRLKAPNGQYLVSTDVSPHPFALEINYQRDISKQQLLEVTDEQWQKLGFPKSNRQQWITQLSFIFPSIKNGDELTYVTDGDKGQIIYRQAGTKTQKMVGEITDERMNDAFLSIWLSPKTEFPKLRKQLIGQVRP”, the “soluble on expression in E. coli” value is reported as “not soluble”.
For “MGSHHHHHHDITSLYKKAGSAAAVLEENLYFGGSFTMANVNKTPGKTRRAEVAGGGFAGLTAAIALKQNGWDVRLHEKSSELRAFGAGIYLWHNGLRVLEGLGALDDVLQGSHTPPTYETWMHNKSVSKETFNGLPWRIMTRSHLHDALVNRARALGVDISVNSEAVAADPVGRLTLQTGEVLEADLIVGADGVGSKVRDSIGFKQDRWVSKDGLIRLIVPRMKKELGHGEWDNTIDMWNFWPRVQRILYSPCNENELYLGLMAPAADPRGSSVPIDLEVWVEMFPFLEPCLIEAAKLKTARYDKYETTKLDSWTRGKVALVGDAAHAMCPALAQGAGCAMVNAFSLSQDLEEGSSVEDALVAWETRIRPITDRCQALSGDYAANRSLSKGNMFTPAALEAARYDPLRRVYSWPQ”, the “soluble on expression in E. coli” value was “soluble”.
For “MGSHHHHHHDITSLYKKAGSENLYFQMKLRYLNILKEKLGREPTFVELQAFSVMWSEHCGYSHTKKYIRRLPKTGFEGNAGVVNLDDYYSVAFKIESHNHPSAIEPYNGAATGVGGIIRDVLAMGARPTAIFDSLHMSRIIDGIIEGIADYGNSIGVPTVGGELRISSLYAHNPLVNVLAAGVVRNDMLVDSKASRPGQVIVIFGGATGRDGIHGASFASEDLTGDKATKLSIQVGDPFAEKMLIEAFLEMVEEGLVEGAQDLGAGGVLSATSELVAKGNLGAIVHLDRVPLREPDMEPWEILISESQERMAVVTSPQKASRILEIARKHLLFGDVVAEVIEEPVYRVMYRNDLVMEVPVQLLANAPEEDIVEYTPGKIPEFKRVEFEEVNAREVFEQYDHMVGTDTVVPPGFGAAVMRIKRDGGYSLVTHSRADLALQDTYWGTLIAVLESVRKTLSVGAEPLAITNCVNYGDPDVDPVGLSAMMTALKNACEFSGVPVASGNASLYNTYQGKPIPPTLVVGMLGKVNPQKVAKPKPSKVFAVGWNDFELEREKELWRAIRKLSEEGAFILSSSQLLTRTHVETFREYGLKIEVKLPEVRPAHQMVLVFSERTPVVDVPVKEIGTLSR”, the “soluble on expression in E. coli” value was “soluble”.
For “MGSKKLKRVGLSQELCDRLSRHQILTCQDFLCLSPLELMKVTGLSYRGVHELLCMVSRACAPKMQTAYGIKAQRSADFSPAFLSTTLSALDEALHGGVACGSLTEITGPPGCGKTQFCIMMSILATLPTNMGGLEGAVVYIDTESAFSAERLVEIAESRFPRYFNTEEKLLLTSSKVHLYRELTCDEVLQRIESLEEEIISKGIKLVILDSVASVVRKEFDAQLQGNLKERNKFLAREASSLKYLAEEFSIPVILTNQITTHLSGALASQADLVSPADDLSLSEGTSGSSCVIAALGNTWSHSVNTRLILQYLDSERRQILIAKSPLAPFTSFVYTIKEEGLVLQAYGNS”, the “soluble on expression in E. coli” value was “soluble”.
For “MGSLDHGAKEQLQSEEFGERKQFEDKELGAKKDEALHVLEGLITRSKTKLLNQAITTLLQKIEGSLKLEACPTTLVVIQAV”, the “soluble on expression in E. coli” value was “not soluble”.
